# Laboratory results as given in patent US20060099671.
# System: human plasminogen
# Sequence (chain, as listed by the source): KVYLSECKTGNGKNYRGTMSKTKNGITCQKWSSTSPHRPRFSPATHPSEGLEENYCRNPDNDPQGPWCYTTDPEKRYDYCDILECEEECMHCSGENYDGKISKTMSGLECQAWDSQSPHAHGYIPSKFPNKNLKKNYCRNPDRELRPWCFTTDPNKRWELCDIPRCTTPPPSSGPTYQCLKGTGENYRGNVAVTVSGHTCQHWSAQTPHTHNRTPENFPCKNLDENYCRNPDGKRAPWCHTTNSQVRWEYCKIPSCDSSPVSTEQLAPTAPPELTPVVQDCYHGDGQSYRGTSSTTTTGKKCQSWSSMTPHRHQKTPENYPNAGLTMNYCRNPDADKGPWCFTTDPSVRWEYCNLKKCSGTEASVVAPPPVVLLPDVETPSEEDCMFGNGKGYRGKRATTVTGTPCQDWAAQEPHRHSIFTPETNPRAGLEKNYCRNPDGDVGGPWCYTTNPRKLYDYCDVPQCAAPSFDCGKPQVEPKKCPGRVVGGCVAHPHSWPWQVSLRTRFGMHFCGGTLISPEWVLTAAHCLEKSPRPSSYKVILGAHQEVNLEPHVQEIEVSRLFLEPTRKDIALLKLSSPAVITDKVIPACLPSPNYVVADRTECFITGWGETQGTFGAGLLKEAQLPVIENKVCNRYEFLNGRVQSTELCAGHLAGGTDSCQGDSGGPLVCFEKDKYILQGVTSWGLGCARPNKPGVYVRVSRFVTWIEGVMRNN
Substance,conversion of plasminogen to plasmin (Coomassie-stained reduced polyacrylamide gels),production of angiostatin (western blot)
urokinase-type plasminogen activator (u-PA),The complete conversion of plasminogen to plasmin was confirmed,"incubation of plasminogen (0.2 µM) with u-PA (0.2 nM), t-PA (1.0 nM), or streptokinase (8.0 nM) with 100 µM N-acetyl-L-cysteine resulted in the production of angiostatin"
tissue-type plasminogen activator (t-PA),,"incubation of plasminogen (0.2 µM) with u-PA (0.2 nM), t-PA (1.0 nM), or streptokinase (8.0 nM) with 100 µM N-acetyl-L-cysteine resulted in the production of angiostatin"
